Consider two molecules from paper doi:10.1101/2023.06.28.546941 (bioRxiv, 2023).

Series [1] has as its target T1, MEF2 (UniProt P40791 1-540).
T1 sequence: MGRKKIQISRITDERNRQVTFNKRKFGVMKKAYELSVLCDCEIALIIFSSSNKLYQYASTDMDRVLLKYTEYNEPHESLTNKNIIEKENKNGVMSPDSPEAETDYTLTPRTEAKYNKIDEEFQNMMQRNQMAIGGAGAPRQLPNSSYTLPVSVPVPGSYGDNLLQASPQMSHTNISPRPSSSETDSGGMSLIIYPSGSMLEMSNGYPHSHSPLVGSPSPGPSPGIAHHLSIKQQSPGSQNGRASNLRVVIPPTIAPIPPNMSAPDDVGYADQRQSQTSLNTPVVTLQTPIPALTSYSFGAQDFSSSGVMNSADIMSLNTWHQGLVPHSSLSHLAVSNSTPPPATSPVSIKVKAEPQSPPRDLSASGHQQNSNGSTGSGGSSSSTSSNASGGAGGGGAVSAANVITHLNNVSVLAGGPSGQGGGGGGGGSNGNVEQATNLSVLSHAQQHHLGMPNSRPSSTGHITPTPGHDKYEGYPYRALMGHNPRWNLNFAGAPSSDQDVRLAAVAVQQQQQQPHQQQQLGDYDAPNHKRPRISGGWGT
In words: competition.

The target of series [2] is T2, MEF2 MADS plus MEF2 domain (amino acids 1-90) (Drosophila, UniProt P40791 1-90).
T2 sequence (looked up): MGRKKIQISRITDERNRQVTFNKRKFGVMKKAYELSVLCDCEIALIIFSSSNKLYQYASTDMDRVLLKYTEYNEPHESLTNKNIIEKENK
In words: pull-down.

B1: M1+T1 M1mut (dsDNA)
DNA 1: GGTGTCGTCTGTTGAAGTGTGAACATTAATGCCTAGATCTAAAGCGATAAAA
DNA 2: GGTTTTATCGCTTTAGATCTAGGCATTAATGTTCACACTTCAACAGACGACA
With B1, the binding result in series [1] is given as “no binding”.

B2: MBP-fused Tin homeodomain (amino acids 301-360) (domain or fragment, Drosophila, UniProt P22711 301-360, looked up)
chain: KRKPRVLFSQAQVLELECRFRLKKYLTGAEREIIAQKLNLSATQVKIWFQNRRYKSKRGD
Consider B2, for which, in series [2], the binding result is “binds”.
